B2: recombinant Pfs38 (6-Cys domain, aa 153–328) (domain or fragment)
chain: KIPGCDFNADYKESTAITTFSNMSPRRVKVCDVYPKSGDFISLMCPSDYSIKPDGCFSNVYVKRYPNEEVKEEDRFNLNRKWDASKYNVVSIETVLKMNMITQGDKYSIFSKLPDVKDQVDFTCICQSNDEQDNLMMNVYINNTSYLTNNTRSIGVNKHSFSNSEIFERIEREEIS
notes: Pfs38, Plasmodium falciparum 6-Cys protein; 6-Cys domain aa 153-328, amplified from a codon-optimised synthetic gene (aa 22-328) and cloned in pET28b between NcoI and XhoI; Cloning in pET28b between NcoI and XhoI would give a C-terminal His6 (surmised); The forward primer adds a few residues (Met-Gly-Ser) before the insert (surmised from the primer); also called rPfs38

The target of assay [1] is B2. As to the kind of experiment: SPR; BIACORE 2000, 37 °C, HBS-EP buffer; GLURP R2 immobilised (up to 400 RU) on CM5 chip; Pfs38 injected at increasing concentrations, 20 µL/min; 1:1 Langmuir fit. The settings on record: both partners purified. (In SPR one partner is held on a chip, and binding of the other changes the refractive index at the surface.)
Assay [2] addresses T1, recombinant PfMSP-1_(65) (aa 1052–1664) (Plasmodium falciparum 3D7, UniProt Q8I0U8 1052-1664).
T1 construct: Merozoite surface protein 1 (MSP-1), Plasmodium falciparum 3D7, aa 1052-1664, amplified from 3D7 cDNA and cloned in pET28b (NcoI/XhoI); Cloning in pET28b between NcoI and XhoI would give a C-terminal His6 (surmised); also called rPfMSP-1_(65); source: E. coli BL21, soluble, purified (Ni-NTA)
T1 sequence: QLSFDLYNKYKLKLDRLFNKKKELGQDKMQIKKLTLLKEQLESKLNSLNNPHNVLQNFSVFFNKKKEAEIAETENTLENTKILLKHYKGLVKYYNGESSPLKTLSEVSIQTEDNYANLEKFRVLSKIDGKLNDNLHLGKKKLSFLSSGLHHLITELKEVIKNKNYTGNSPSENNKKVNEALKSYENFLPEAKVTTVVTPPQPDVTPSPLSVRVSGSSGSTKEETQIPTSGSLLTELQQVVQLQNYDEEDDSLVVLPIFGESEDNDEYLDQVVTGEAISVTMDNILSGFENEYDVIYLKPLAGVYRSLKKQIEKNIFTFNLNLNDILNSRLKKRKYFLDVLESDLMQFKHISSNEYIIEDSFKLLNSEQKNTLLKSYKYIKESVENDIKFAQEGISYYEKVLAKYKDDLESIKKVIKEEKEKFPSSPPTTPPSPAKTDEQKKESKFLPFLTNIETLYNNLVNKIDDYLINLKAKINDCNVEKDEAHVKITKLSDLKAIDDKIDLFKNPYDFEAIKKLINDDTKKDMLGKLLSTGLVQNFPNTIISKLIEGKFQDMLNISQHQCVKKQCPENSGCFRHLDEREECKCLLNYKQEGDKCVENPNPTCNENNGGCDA
Nature of the assay: far-Western, overlay or dot blot; 1-5 µg recombinant protein separated by SDS-PAGE, blotted, denatured and renatured; membrane incubated with 2 µg/mL purified GLURP R2, Pfs38 or SERA-5 in 100 mM NaCl, 20 mM Tris pH 7.6, 0.5 mM EDTA, 10% glycerol, 1 mM DTT, 2 h at RT; detected with antisera to the soluble protein. The settings on record: both partners purified.

As a reminder, the Kd is the constant that tells how readily two partners part at equilibrium.

B1: recombinant GLURP R2 (domain or fragment)
chain: DGPVPSKPFEEIEKVDVQPKIVDLQIIEPNFVDSQPNPQEPVEPSFVKIEKVPSEENKHASVDPEVKEKENVSEVVEEKQNSQESVEEIPVNEDEFEDVHTEQLDLDHKTVDPEIVEVEEIPSELHENEVAHPEIVEIEEVFPEPNQNNEFQEINEDDKSAHIQHEIVEVEEILPEDDKNEKVEHEIVEVEEILPEDKNEKGQHEIVEVEEILPEDDKNEKVEHEIVEVEEILPEDKNEKGQHEIVEVEEILPEDKNEKVEHEIVEVEEILPEDKNEKGQHEIVEVEEILPEDKNEKVQHEIVEVEEILPEDKNEKGQHEIVEVEEILPEEDKNEKGQHEIVEVEEILPEDKNEKVQHEIVEVEEILPEDKNEKVQHEIVEVEEILPEIVEIEEVPSQTNNNENIETIKPEEKKNEFSVEEKAIPQEPVVPTLNENENVTPKPSEGESTKPDIVQIKIVQENKPNKKETPVVDG
modifications: Limits are not printed. The conventional GLURP R2 fragment (705-1178, F32 strain, 1271-aa GLURP) is assumed. The 3D7 orthologue is Q8IJ56.
Turning to B1, in assay [1], the Kd was 26 nM.
On to B2, for which the binding result in assay [2] is “binds”.

The record behind these values is PMC5312596, “A novel Pfs38 protein complex on the surface of Plasmodium falciparum blood-stage merozoites” (Malaria Journal, 2017).
